Test: yeast display, Sf9 membrane polyspecificity reagent, FACS + sequencing; frameworks hold sequencing errors
Summary of the method: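 Nanobodies from a synthetic yeast display library (Saccharomyces cerevisiae BJ5465), induced 36–48 hours with galactose, were stained 1 hour at 4 °C with 10% biotinylated, detergent-solubilized Sf9 membrane reagent, enriched on streptavidin microbeads, then FACS-sorted. Anti-HA (expression) and streptavidin (reagent binding) fluorescence set low and high (top ~1%) gates. Polyreactivity labels come from the gate of origin. Genes were colony-PCR amplified, MiSeq 2 × 250 sequenced and filtered by CDR length.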

Sequence	polyreactivity (PSR sort gate)
QVQLVESGGGLVQAGGSLRLSCAASGSIFGFYAMGWYRQAPGKERELVASITISGGSTYYADSVKGRFTISRDNAKNTVYLQMNSLKPEDTAVYYCAARRYWDYNYWGQGTQVTVSS	low polyreactivity
QVQLVESGGGLVQAGGSLRLSCAASGFIFEYYAMGWYRQAPGKERELVAAISNGGGRTYYADSVKGRFTISRDNAKNTVYLQMNSLKPEDTAVYYCAAYWVYQRNSRTWEYDYWGQGTQVTVSS	high polyreactivity
QVQLVESGGGLVQAGGSLRLSCASSGYTFRYYAMGWYRQAPGKERELVAAITRRGATTYYADSVKGRFTISRDNAKNTVYLQMNRLQPEDTADYYCNAVYQYGSFVTAAGNYWGQGTQVTVSS	high polyreactivity
QVQLVESGGGLVQAGGSLRLSCAACGSIFDRYVMGWYRQAPGKERELVAAISSSGGSTYYADSVKGRFTISRDNAKNTVYLQMNSLKPEDTAVYYCAAKFSYGRYNYWGQGTQVTVSS	high polyreactivity
QVQLVESGGGLVQAGGSLRLSCAASGSIYEINAMGWYRQAPGKERELVAAITGSGGSTHYADSVKGRFTISRDNAKNTVYLQMNSLKPEDTAVYYCAAVPRYQYGYWGQGTQVTVSS	low polyreactivity
QVQLVESGGGLVQAGGSLRISCAPSGSTFPHNAMGWYRQAPGKERELVAAISSIGVRTYYADSVKGRFTISRDNAKNTVYLQMNSLKPEDTAVYYCAAEYDGPYTWVEYYYHYGYWGQGTQVTVSS	high polyreactivity
QVQLVESGGGLVQAGGSLRLSCAASGSTYRLYAMGWYRQAPGKERELVAAITWRGTTYYADSVKGRFTISRDNAKNTVYLQMNSLKPEDTAVYYCAARAPVAGYKYRYDYWGQGTQVTVSS	high polyreactivity
QVQLVESVGGLVQAGGSLRLICAASGSIFVPNTMGWYRQAPGKERELVAAINISGGNTYYADSVKGRFTISRDNAKNTVYLQMNSLKPEDTAVYYCAAVWFKVWSFAGDWGQGTQVTVSS	low polyreactivity
QVQLVESGGGLVQAGGSLRVSCAASGRTFSGYTMGWYRQAPGKERELVATIRDRGGSTYYADSVKGRFTISRDNAKNTVYLQMNSLTPEDTAVYYCAARRGRRYYYWGQATQVTVSS	high polyreactivity
QVQLEESVGGLVQAGGSLRISCAASGRTFKLYAMGRKRQAPGKERELVATITRRGGSTYYADSVKGRFTISRDNAKNTVYLQMNSLKPEDTAVYYCASDAIGYYGTYDYWGQGTQVTVSS	high polyreactivity
QDQLVESGGGLVQAGGSLRLSCAASGRTIKTYAMGWYRQAPGKVRELVAAIRRRGGSTYYADSVKGRFTISRDNAKNTVYLQMHSLKPEDTAVYYCAAGYVTYRDAHVSMDYCGQGTQVTVSS	high polyreactivity
QVQLVESGGGLVQAGGSLRLICAASGRIFVPYVMGWYRQAPGKERELVASISDSDTSTYYADSVKGRFTISRDNAKNTVYLQMNSVKPEDTAVYYCNVDYWGQGTQVTVSS	low polyreactivity
QVQRVESGGGLVQAGGSLRLSCAASRRIFKLYAMGWYIQAPGKERELVAAINRRGGSTSYADSVKVRFTISRDYAKNTVYLQMNSLKPEDTAVYYCAASYTGRTVVQGYEYWGQGTQVTVSS	high polyreactivity
QVQLVESGGGLVQAGGSLRLSCAASGSTFYQNAMGWYRQAPGKERELVAAISRSGGGTYYADSVKGRFTISRDNAKNTVYLQMNSLKPEDTAVYYCAVRPTYNSWTRSTSRYYYWGQGTQVTVSS	high polyreactivity
QVQLVESGGALDQAGGSLRLSCAASGFFRYAMGSYRQAPGKERELVAAITSGGRTNYADSVKGRFTISRDNAKNTVYLQMNSLKPEDTAVYNCAADQGSRSEELDYWGQGTQVTVSS	low polyreactivity
QVQLVESGGGLVQAGGSLRLSCAASGITFRFNARVWYRQEPGKEREFVAAITYSGDSTYYADSVKGRFTISRDNAKNTVYLQMNSLKPEDTAVYYCAADYYAISRRIFYYWGQGTQVTVSS	low polyreactivity
QVQLVESGGGLVQAGGSLRLSCAASGSIFRYVMGWYRQAPGKERELVAAISIRGGSTYYADSVKGRFTISRDNAKNTVYLQMNSLKPEDTAVYYCAADRYRLGVKYDYWGQGNQVTVSS	high polyreactivity
QVQHVESGGGLVQAGGSLRLSCAASGRIFVPYVMGWYRQAPGKERELVASISDSDTSTYDADSVKGRFTISRDNAKTTVYLQMNSLKPEDTAVYYCNVDYWGKGTQVTVSS	low polyreactivity
QVQLVESGGGLVQAGGSLSLSCAASGGIFAANAMGWYRQAPGKERELVAAITRRGGSTTYADSVKGRFTISRDNAKNTVYLQMNRLKREDTAVYYCNTVYYRFYIELYFSSYDYWGQGTQVTVSS	high polyreactivity
QVQLVESGGGLVQAGGSLRLSCAASGRIFGVNAMGWYRQAPGKERELVADISSGGSTYYADSVKGRFTISRDNAKNTVYLQMNSLKPEDTAVYYCAKAPRGRGLYDYWGQGTQVTVSS	low polyreactivity
QVQLEESGGGLVQAGGRLRLSCAASGSTCGTNVMGGARQAPGKERELVAAFSNGGSTNYADSVKGRFTISRDNAKITDYLQMNSLKPEDTAVYYCEFDYWGQGTQVTVSS	low polyreactivity
QVQLVESGGGLVQAGGSLRLSCAASGTIFVPYAMGWYRQAPGKERELVAVITSGGSTYYADSVKGRFTISRDNAKNTVYLQMNSLKPEDTAVYYCNADLYYVWSTLSQFDYWGQGTQVTVSS	low polyreactivity

Sequence	polyreactivity (PSR sort gate)
QFQLVESGGGLVQAGGSLRLSCAASGFIFYRNAMGGYRQAPGKERELVAGITSGGRPYYADSVKGRFTISRDNAKNTVYLQMNCLKPEDTGVYYCAARRSRPTYYSTGVNYWGQGTQVTVSS	high polyreactivity
QVQLVESGGGLVQAGGSLRLSCAASGRTFTLYAMGWYRQAPGKERELVASITTGGRTYYADSVKGRFTISRDNAKNTVYLKMNSLKPEDTAVYYCNADRVYAWYRTYEYWGQGTEVTVSS	high polyreactivity
QVQLVESGGGLVQAGGSLRLSCAASGFNLYPNAMGWYRQAPGKERELGAAITESDGITYYADSVKGRFTISRDNAKYTVYLQMNSLKPEDTAVYYCNTGFSYTYDYWGQGTQVTVSS	low polyreactivity
QVQLVESWGGLVQAGGSLRLSCADSGRIFRGYGMGWYIQAPGKERELVAVISYSGTPTYYADSVKGRFTISRDNAKNTVYLQMNSLKAEDTAVYYCAARLYWIPPSPSRYDYWLQGTQVTVSS	high polyreactivity
QVQLVDSGGGSVQAGGSLRLSCAASGRTFPYYAMGWYRQAPGKERELVAAITIGNTNYADSVKGRFTISRDNAKNTVYLQMNSLKPEDTAVYYCNASHVSHYRARDYWGQGTQVTVSS	low polyreactivity
QVQLVESGGGLVQAGGSLRLSCAASGSTFRLYTKGWYRQAPGKERELVAAISVSGVSTYYADSVKGRFTISRDNAKNTVYVQMNSLKPEDTAVYYCAKRGYLFLRGSVRVGYNYWGQGTQVTVSS	low polyreactivity
QVQLVESGGGLVQAGGSLRLSCAASGRIWVYAMGWYRQAPGKERELVATITYNSGRTYYADSVKGRFTISRDNAKNTVYLQMNSLKPEDTAVYYCNADFWYSYRRGYGYWGQGTQVTVSS	high polyreactivity
QVQLVESGGGLVQAGGSLRLSCAASGFIFKAYAMGWYRQAPGKERELVASITSGDSTNYADSVKGRFTISRDNAKNTVYLQMNSLKPEDTAVYYCNADGWRWHRRKWVYGYDYWGQGTQVTVSS	low polyreactivity
QVQLVESGGGLVHAGGSLRLSCAASGSTSGIYAMGWYRQAPGKERELVAAIDTSGGSTYADSLKGRFTISRDNAKYTVYLQMNSLKPEDTAGYYCAKPFSSNSWSHGYWGQGTQVTVSS	low polyreactivity
QVQLVESGGGLLQAGGSLRLSCAASGITFTSYVMGWYRQAPGKERELVAAIRWSGGRTYYADSVKGRFTISRDNAKYTVYLQMNSLKPEDTAVYYCNRVTRSHVDYWGQGTQVTVSS	high polyreactivity
QVQLVESGGGLVQAGGSLRLSCAASGRIFPAYVMGWYRQPPGKERELVATIDNGGGTYYADSVKGRFTISRDNAKNTVYLQMNSLKPEDTAVYYCARDPHVRWGLKMDYWGQGTQVTVSS	low polyreactivity
QVQLVESGGGLVQAGGSLRLSCAASGSIFQFSAMGWYRQAPGKERPLVAAISDRGGSTYYADSVKGRFTISRDNAKNTVYLLMNSLKPEDTAVYYCAKGGEVSQGYTDEYDYWGQGTQVTVSS	low polyreactivity
QVQLVESGGGLVQAGGSLRLSCAASGSTFTRNAMGWYRQAPGKERELVAAITSSGGSTYYADSVKGRFTISRDNAKNTVYLQMNSLKPEDTAVYYCNADFRTYYDSEYDYWGQGTQVTVSS	low polyreactivity
QVQLVESGGGLVQAGGSLRLSCAASGRTFKAYAMGWYRQAPGKERELVAAISYSTTSTYYADSVKGRFTISRDNAKNTVYLQMNSLKPEDTAVYYCAVDYIIWYDGYLLYYWGQGTQVTVSS	low polyreactivity
QVQLVESGGGLVQAGGSLRLSCAASGRNLIAYAMGWYRQAPGKEREFVAAIRADDGRTYYADSVKGRFTISRDNAKITVYLQMTSLKPEDTAVYYCAAEWYWLHSWFDYWGQGTQVTVSS	high polyreactivity
QVQLVDSGGGLVQAGGSLSLSCAASGRTFNWYTMGWYRQAPGKEMELVARINGRGGSTYYADSVKGRFTISRDNAKNTVYLQMNSLKPEDTAVYYCNKPHRWPQAGYGYWGQGTQVTVSS	high polyreactivity
QVQLVESGGGLVQAGGSLRLSCADSGITFFTYAMGRYRQAPGKERELVAAISGSGGSTYYADYVKWRFTISRDNAKNTVYLQMNSLKPEDTEVYYCAAEYTYGSPYDYWGQGTQVTVSS	low polyreactivity
QVQLVESGGGLVQAGGSLPLSCAASGRIYGSYAMGWYRQAPGKERELVADISRRGGGTYYADSVKGRFTISRDNAKNTVYLQMNSLKPEDTAFYYCAKDWYGRYYYWGQGTQVTVSS	high polyreactivity
QVQLVESGAGLVQAGGSLRLSCAASGSILTAYAMGWYRQAPVKERELVAAISRGDITKYADSVKGRFTISRDNAKNTVYLQMNSLQPEDTAVYYCAARVPRYSDSTRGRADYYWGQVTQVTVSS	high polyreactivity
QVQLVESGGGLVQAGGSLRLSCAASGIIFGSNTMGWYRQAPGTERELVAAITSSDGSTHYADSVKGRFTISRDNAKNTVYLQMNRLKPEDTAVYYCAARKVTYGHSYGYDYWGQGTQVTVSS	low polyreactivity
QVQLVESGGGLVQEGGSLRLSCAASGFTFRANAMGWYRQAPGKERELVAVITGSGRTYYSDSVKGRFTISRDNAKNTVYLQMNRLKPEYTAVYYCAARAAYRVSSAGYDSLGQGTQVTVSS	high polyreactivity
